From publication doi:10.1101/2020.07.24.219956

Assays:
[1] = molecular target: Human neutrophil-derived myeloperoxidase (human) (UniProt P05164); assay: native MS
[2] = molecular target: Human neutrophil-derived myeloperoxidase (human) (UniProt P05164); assay: mass photometry

Human neutrophil-derived myeloperoxidase (from UniProt P05164 279-745; P05164 279-745) (enzyme)
stoichiometry N [1]: 2 | Kd [2]: 0.05 nM | percent diprotomer (ααββ) [2]: 93% | percent monoprotomer (αβ) [2]: 7% | stoichiometry N [2]: 2
